{"source": "the Human Domainome abundance scans (Beltran et al. 2025)", "parents": {"B1": {"name": "Protein S100-G, residues 1 to 79; numbered along this chain, P02633 (parent)", "chain": "MSAKKSPEELKGIFEKYAAKEGDPNQLSKEELKLLLQTEFPSLLKGPSTLDELFEELDKNGDGEVSFEEFQVLVKKISQ"}}, "note": "± gives the uncertainty stated by the source."}
{"variants_of": "B1", "test": "abundance fitness (aPCA) (normalised: wild type 0, dead -1); higher = more abundant; growth selection in yeast, the domain comes from the species named", "details": "Bos taurus"}
{"variant": "MSDKKSPEELKGIFEKYAAKEGDPNQLSKEELKLLLQTEFPSLLKGPSTLDELFEELDKNGDGEVSFEEFQVLVKKISQ", "note": "[A3D]", "abundance fitness": "0.066 ± 0.09"}
{"variant": "MSCKKSPEELKGIFEKYAAKEGDPNQLSKEELKLLLQTEFPSLLKGPSTLDELFEELDKNGDGEVSFEEFQVLVKKISQ", "note": "[A3C]", "abundance fitness": "0.061 ± 0.1"}
{"variant": "MNAKKSPEELKGIFEKYAAKEGDPNQLSKEELKLLLQTEFPSLLKGPSTLDELFEELDKNGDGEVSFEEFQVLVKKISQ", "note": "[S2N]", "abundance fitness": "0.094 ± 0.087"}
{"variant": "MTAKKSPEELKGIFEKYAAKEGDPNQLSKEELKLLLQTEFPSLLKGPSTLDELFEELDKNGDGEVSFEEFQVLVKKISQ", "note": "[S2T]", "abundance fitness": "0.102 ± 0.076"}
{"variant": "MPAKKSPEELKGIFEKYAAKEGDPNQLSKEELKLLLQTEFPSLLKGPSTLDELFEELDKNGDGEVSFEEFQVLVKKISQ", "note": "[S2P]", "abundance fitness": "-0.699 ± 0.08"}
{"variant": "MIAKKSPEELKGIFEKYAAKEGDPNQLSKEELKLLLQTEFPSLLKGPSTLDELFEELDKNGDGEVSFEEFQVLVKKISQ", "note": "[S2I]", "abundance fitness": "0.144 ± 0.088"}
{"variant": "MAAKKSPEELKGIFEKYAAKEGDPNQLSKEELKLLLQTEFPSLLKGPSTLDELFEELDKNGDGEVSFEEFQVLVKKISQ", "note": "[S2A]", "abundance fitness": "-0.138 ± 0.073"}
{"variant": "MGAKKSPEELKGIFEKYAAKEGDPNQLSKEELKLLLQTEFPSLLKGPSTLDELFEELDKNGDGEVSFEEFQVLVKKISQ", "note": "[S2G]", "abundance fitness": "0.039 ± 0.086"}
{"variant": "MEAKKSPEELKGIFEKYAAKEGDPNQLSKEELKLLLQTEFPSLLKGPSTLDELFEELDKNGDGEVSFEEFQVLVKKISQ", "note": "[S2E]", "abundance fitness": "-0.105 ± 0.11"}
{"variant": "MKAKKSPEELKGIFEKYAAKEGDPNQLSKEELKLLLQTEFPSLLKGPSTLDELFEELDKNGDGEVSFEEFQVLVKKISQ", "note": "[S2K]", "abundance fitness": "0.225 ± 0.1"}
{"variant": "MFAKKSPEELKGIFEKYAAKEGDPNQLSKEELKLLLQTEFPSLLKGPSTLDELFEELDKNGDGEVSFEEFQVLVKKISQ", "note": "[S2F]", "abundance fitness": "0.073 ± 0.081"}
{"variant": "MVAKKSPEELKGIFEKYAAKEGDPNQLSKEELKLLLQTEFPSLLKGPSTLDELFEELDKNGDGEVSFEEFQVLVKKISQ", "note": "[S2V]", "abundance fitness": "0.085 ± 0.084"}
{"variant": "MMAKKSPEELKGIFEKYAAKEGDPNQLSKEELKLLLQTEFPSLLKGPSTLDELFEELDKNGDGEVSFEEFQVLVKKISQ", "note": "[S2M]", "abundance fitness": "0.279 ± 0.12"}
{"variant": "MWAKKSPEELKGIFEKYAAKEGDPNQLSKEELKLLLQTEFPSLLKGPSTLDELFEELDKNGDGEVSFEEFQVLVKKISQ", "note": "[S2W]", "abundance fitness": "-0.118 ± 0.095"}
{"variant": "MLAKKSPEELKGIFEKYAAKEGDPNQLSKEELKLLLQTEFPSLLKGPSTLDELFEELDKNGDGEVSFEEFQVLVKKISQ", "note": "[S2L]", "abundance fitness": "-0.015 ± 0.067"}
{"variant": "MHAKKSPEELKGIFEKYAAKEGDPNQLSKEELKLLLQTEFPSLLKGPSTLDELFEELDKNGDGEVSFEEFQVLVKKISQ", "note": "[S2H]", "abundance fitness": "-0.09 ± 0.094"}
{"variant": "MDAKKSPEELKGIFEKYAAKEGDPNQLSKEELKLLLQTEFPSLLKGPSTLDELFEELDKNGDGEVSFEEFQVLVKKISQ", "note": "[S2D]", "abundance fitness": "0.116 ± 0.081"}
{"variant": "MQAKKSPEELKGIFEKYAAKEGDPNQLSKEELKLLLQTEFPSLLKGPSTLDELFEELDKNGDGEVSFEEFQVLVKKISQ", "note": "[S2Q]", "abundance fitness": "0 ± 0.1"}
{"variant": "YSAKKSPEELKGIFEKYAAKEGDPNQLSKEELKLLLQTEFPSLLKGPSTLDELFEELDKNGDGEVSFEEFQVLVKKISQ", "note": "[M1Y]", "abundance fitness": "-0.501 ± 0.13"}
{"variant": "DSAKKSPEELKGIFEKYAAKEGDPNQLSKEELKLLLQTEFPSLLKGPSTLDELFEELDKNGDGEVSFEEFQVLVKKISQ", "note": "[M1D]", "abundance fitness": "-0.392 ± 0.13"}
{"variant": "VSAKKSPEELKGIFEKYAAKEGDPNQLSKEELKLLLQTEFPSLLKGPSTLDELFEELDKNGDGEVSFEEFQVLVKKISQ", "note": "[M1V]", "abundance fitness": "-0.313 ± 0.078"}
{"variant": "SSAKKSPEELKGIFEKYAAKEGDPNQLSKEELKLLLQTEFPSLLKGPSTLDELFEELDKNGDGEVSFEEFQVLVKKISQ", "note": "[M1S]", "abundance fitness": "-0.368 ± 0.097"}
{"variant": "LSAKKSPEELKGIFEKYAAKEGDPNQLSKEELKLLLQTEFPSLLKGPSTLDELFEELDKNGDGEVSFEEFQVLVKKISQ", "note": "[M1L]", "abundance fitness": "-0.378 ± 0.085"}
{"variant": "NSAKKSPEELKGIFEKYAAKEGDPNQLSKEELKLLLQTEFPSLLKGPSTLDELFEELDKNGDGEVSFEEFQVLVKKISQ", "note": "[M1N]", "abundance fitness": "-0.186 ± 0.13"}
{"variant": "RSAKKSPEELKGIFEKYAAKEGDPNQLSKEELKLLLQTEFPSLLKGPSTLDELFEELDKNGDGEVSFEEFQVLVKKISQ", "note": "[M1R]", "abundance fitness": "-0.631 ± 0.091"}
{"variant": "ISAKKSPEELKGIFEKYAAKEGDPNQLSKEELKLLLQTEFPSLLKGPSTLDELFEELDKNGDGEVSFEEFQVLVKKISQ", "note": "[M1I]", "abundance fitness": "0.027 ± 0.094"}
{"variant": "FSAKKSPEELKGIFEKYAAKEGDPNQLSKEELKLLLQTEFPSLLKGPSTLDELFEELDKNGDGEVSFEEFQVLVKKISQ", "note": "[M1F]", "abundance fitness": "-0.193 ± 0.11"}
{"variant": "ESAKKSPEELKGIFEKYAAKEGDPNQLSKEELKLLLQTEFPSLLKGPSTLDELFEELDKNGDGEVSFEEFQVLVKKISQ", "note": "[M1E]", "abundance fitness": "-0.552 ± 0.1"}
{"variant": "HSAKKSPEELKGIFEKYAAKEGDPNQLSKEELKLLLQTEFPSLLKGPSTLDELFEELDKNGDGEVSFEEFQVLVKKISQ", "note": "[M1H]", "abundance fitness": "-1.42 ± 0.33"}
{"variant": "GSAKKSPEELKGIFEKYAAKEGDPNQLSKEELKLLLQTEFPSLLKGPSTLDELFEELDKNGDGEVSFEEFQVLVKKISQ", "note": "[M1G]", "abundance fitness": "-0.267 ± 0.1"}
{"variant": "KSAKKSPEELKGIFEKYAAKEGDPNQLSKEELKLLLQTEFPSLLKGPSTLDELFEELDKNGDGEVSFEEFQVLVKKISQ", "note": "[M1K]", "abundance fitness": "-0.245 ± 0.099"}
{"variant": "ASAKKSPEELKGIFEKYAAKEGDPNQLSKEELKLLLQTEFPSLLKGPSTLDELFEELDKNGDGEVSFEEFQVLVKKISQ", "note": "[M1A]", "abundance fitness": "-0.572 ± 0.1"}
{"variant": "PSAKKSPEELKGIFEKYAAKEGDPNQLSKEELKLLLQTEFPSLLKGPSTLDELFEELDKNGDGEVSFEEFQVLVKKISQ", "note": "[M1P]", "abundance fitness": "-1.34 ± 0.26"}
{"variant": "WSAKKSPEELKGIFEKYAAKEGDPNQLSKEELKLLLQTEFPSLLKGPSTLDELFEELDKNGDGEVSFEEFQVLVKKISQ", "note": "[M1W]", "abundance fitness": "-0.667 ± 0.11"}
{"variant": "QSAKKSPEELKGIFEKYAAKEGDPNQLSKEELKLLLQTEFPSLLKGPSTLDELFEELDKNGDGEVSFEEFQVLVKKISQ", "note": "[M1Q]", "abundance fitness": "-0.678 ± 0.15"}
